B1: CCND1 (parent)
chain: PEAEENKQIIRKHAQTFVALCATD
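Further: lentivirally expressed fusions sorted by FACS into six bins by GFP to DsRed ratio, PSI derived from sequencing read proportions per bin multiplied by bin number.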

In this data set the parent is B1. Put plainly: protein stability index of a GFP-peptide fusion (GPS, HEK-293T) (PSI 1-6); higher = more stable. The conditions noted are these: c terminus: a fixed tail appended.
PEAEENKQIIRKHAQTFVALMATD [C21M]: the protein stability index turned out to be 3.28. The result for PEAEENKQIIRKHAQTFVALNATD [C21N] reads 5.27. The value for PEAEENKQIIRKHAQTFVALPATD [C21P] was 4.7; that for PEAEENKQIIRKHAQTFVALRATD [C21R] was 4.86. The result for PEAEENKQIIRKHAQTFVALIATD [C21I] reads 1.98. For the variant PEAEENKQIIRKTAQTFVALCATD [H13T], the protein stability index stood at 3.07. On to PEAEENKQIIRKFAQTFVALCATD [H13F], for which the protein stability index came to 2.55. The result for PEAEENKQIIRKSAQTFVALCATD [H13S] reads 2.54; that for PEAEENKQIIRKMAQTFVALCATD [H13M], 2.89; that for PEAEENKQIIRKGAQTFVALCATD [H13G], 3.84. The value for PEAEENKQIIRKKAQTFVALCATD [H13K] was 2.02; that for PEAEENKQIIRKRAQTFVALCATD [H13R] was 2.9; that for PEAEENKQIIRKQAQTFVALCATD [H13Q] was 3.4. The result for PEAEENKQIIRKHAQTFVAQCATD [L20Q] reads 2.85; that for PEAEENKQIIRKHAQTFVAKCATD [L20K], 2.59. On to PEAEENKQIIRKHAQTFVAHCATD [L20H], for which the protein stability index came out at 3.21. For PEAEENKQIIRKHAQTFVAMCATD [L20M], the protein stability index was 2.11.

Take PEAEENKQIIRKHAQTFVAECATD [L20E]: the protein stability index was 4.8. The result for PEAEENKQIIRKHAQTFVAWCATD [L20W] reads 4.15; that for PEAEENKQIIRKHAQTFVATCATD [L20T], 4.04. The value for PEAEENKQIIRKHAQTFVACCATD [L20C] was 3.82. The result for PEAEENKQIIRKHAQTFVAVCATD [L20V] reads 2.87; that for PEAEENKQIIRKHAQTFVALCATV [D24V], 2.54. With PEAEENKQIIRKHAQTFVALCATY [D24Y], the protein stability index was determined as 2.89.

PEAEENKQIIRKHAQTFVALCATK [D24K]: the protein stability index was 3.84. In the case of PEAEENKQIIRKHAQTFVALCATL [D24L], the protein stability index was found to be 2.79. The value for PEAEENKQIIRKHAQTFVALCATC [D24C] was 2.71; that for PEAEENKQIIRKHAQTFVALCATA [D24A] was 3.27; that for PEAEENKQIIRKHAQTFVALCATP [D24P] was 3.63. Regarding PEAEENKQIIRKHAQTFVALCATE [D24E], the protein stability index was determined as 2.33. The result for PEAEENKQIIRKHAQTFVALCATN [D24N] reads 3.88; that for PEAEENKQIIRKHAQTFVALCATR [D24R], 2.7; that for PEAEENIQIIRKHAQTFVALCATD [K7I], 2.6. The value for PEAEENYQIIRKHAQTFVALCATD [K7Y] was 2.62.

On to PEAEENQQIIRKHAQTFVALCATD [K7Q], for which the protein stability index worked out at 2.98. The value for PEAEENLQIIRKHAQTFVALCATD [K7L] was 2.95.

Turning to PEAEENEQIIRKHAQTFVALCATD [K7E], the protein stability index amounted to 3.84.

With PEAEENHQIIRKHAQTFVALCATD [K7H], the protein stability index was determined as 3.36. Turning to PEAEENDQIIRKHAQTFVALCATD [K7D], the protein stability index was determined as 3.69. The value for PEAEENNQIIRKHAQTFVALCATD [K7N] was 3.78. The value for PEAEENPQIIRKHAQTFVALCATD [K7P] was 3.19; that for PEAEENKQIIRKHAQTMVALCATD [F17M] was 5.03; that for PEAEENKQIIRKHAQTEVALCATD [F17E] was 5.24. With PEAEENKQIIRKHAQTSVALCATD [F17S], the protein stability index amounted to 4.67. On to PEAEENKQIIRKHAQTVVALCATD [F17V], for which the protein stability index amounted to 4.33. The value for PEAEENKQIIRKHAQTGVALCATD [F17G] was 5.43. The result for PEAEENKQIIRKHAQTQVALCATD [F17Q] reads 4.99; that for PEAEENKQIIRKHAQTRVALCATD [F17R], 4.54. The result for PEAEENKQIIRKHAQTIVALCATD [F17I] reads 4.84; that for PEAEENKQIIRKHAQTLVALCATD [F17L], 4.47. Take PEAEENKQIIRKHAQNFVALCATD [T16N]: the protein stability index turned out to be 4.61. As for PEAEENKQIIRKHAQEFVALCATD [T16E], the protein stability index turned out to be 5.27. The result for PEAEENKQIIRKHAQPFVALCATD [T16P] reads 4.62; that for PEAEENKQIIRKHAQGFVALCATD [T16G], 3.88. The value for PEAEENKQIIRKHAQKFVALCATD [T16K] was 4.7. The value for PEAEENKQIIRKHAQWFVALCATD [T16W] was 2.85. With PEAEENKQIIRKHAQFFVALCATD [T16F], the protein stability index was 3.37. The value for PEAEENKQIIRKHAQCFVALCATD [T16C] was 3.55; that for PEAEENKQIIRKHAQDFVALCATD [T16D] was 4.81; that for PEAEENKQIIRKHAQTFVHLCATD [A19H] was 3.32. The result for PEAEENKQIIRKHAQTFVMLCATD [A19M] reads 2.55; that for PEAEENKQIIRKHAQTFVRLCATD [A19R], 3.96; that for PEAEENKQIIRKHAQTFVPLCATD [A19P], 4.92.

As to PEAEENKQIIRKHAQTFVILCATD [A19I], the protein stability index is 2.85. The value for PEAEENKQIIRKHAQTFVLLCATD [A19L] was 2.59; that for PEAEENKQIIRKHAQTFVTLCATD [A19T] was 4.06. The value for PEAEENKQIIRKHAQTFVQLCATD [A19Q] was 2.5. The value for PEAEENKQIIRKHAQTFVWLCATD [A19W] was 3.06; that for PEAETNKQIIRKHAQTFVALCATD [E5T] was 1.69; that for PEAEKNKQIIRKHAQTFVALCATD [E5K] was 2.17.

With PEAEWNKQIIRKHAQTFVALCATD [E5W], the protein stability index was 2.04. The value for PEAEVNKQIIRKHAQTFVALCATD [E5V] was 2.55; that for PEAEFNKQIIRKHAQTFVALCATD [E5F] was 2.12; that for PEAECNKQIIRKHAQTFVALCATD [E5C] was 1.86. For PEAENNKQIIRKHAQTFVALCATD [E5N], the protein stability index stood at 2.25. The value for PEAEGNKQIIRKHAQTFVALCATD [E5G] was 2.47; that for PEAEQNKQIIRKHAQTFVALCATD [E5Q] was 2.33. The result for PEAELNKQIIRKHAQTFVALCATD [E5L] reads 1.91; that for PEAEHNKQIIRKHAQTFVALCATD [E5H], 2.24. The result for EEAEENKQIIRKHAQTFVALCATD [P1E] reads 3.45. MEAEENKQIIRKHAQTFVALCATD [P1M]: the protein stability index is 2.68. The result for IEAEENKQIIRKHAQTFVALCATD [P1I] reads 2.36; that for HEAEENKQIIRKHAQTFVALCATD [P1H], 3.19.

With YEAEENKQIIRKHAQTFVALCATD [P1Y], the protein stability index is 3.2. The result for AEAEENKQIIRKHAQTFVALCATD [P1A] reads 3.14. For the variant PEAEENKQIIRKHAQTFNALCATD [V18N], the protein stability index came to 4.61. As to PEAEENKQIIRKHAQTFQALCATD [V18Q], the protein stability index stood at 4.29. The value for PEAEENKQIIRKHAQTFYALCATD [V18Y] was 3.75; that for PEAEENKQIIRKHAQTFLALCATD [V18L] was 4.49; that for PEAEENKQIIRKHAQTFGALCATD [V18G] was 4.55. The result for PEAEENKQIIRMHAQTFVALCATD [K12M] reads 2.73.

Regarding PEAEENKQIIRCHAQTFVALCATD [K12C], the protein stability index is 2.76. The result for PEAEENKQIIRAHAQTFVALCATD [K12A] reads 3.83. Consider PEAEENKQIIRRHAQTFVALCATD [K12R], for which the protein stability index was determined as 2.67.

Source of the values: the supplement of paper PMC10567573.
